# Measurements reported in US20230227559A1.
# Molecular target: His-tagged ectodomains of hFcγRIIIA variant V158 (human) (UniProt P08637)
# Experiment: SPR (ProteON), His-tagged hFcγRIIIA V158 ectodomains on chip, mAb injected
# Sequence of His-tagged ectodomains of hFcγRIIIA variant V158 (human) (P08637 other isoform, or with tags, fused parts or gaps mutant): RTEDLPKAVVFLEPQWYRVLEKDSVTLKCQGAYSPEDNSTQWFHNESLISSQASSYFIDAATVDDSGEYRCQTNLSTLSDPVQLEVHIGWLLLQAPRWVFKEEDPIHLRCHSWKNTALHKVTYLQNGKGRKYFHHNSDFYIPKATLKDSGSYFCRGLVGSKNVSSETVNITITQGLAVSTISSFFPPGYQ
Substance,Kd,koff,kon
Chimeric 3G8 hIgG1 (antibody),2.1 nM,0.00021 s⁻¹,300000 M⁻¹ s⁻¹
Chimeric 3G8 hIgG1 N297A format (antibody),2.88 nM,0.0003 s⁻¹,110000 M⁻¹ s⁻¹
